What was measured:
[1] = molecular target: T1, ALK (anaplastic lymphoma kinase) receptor, full length, expressed on cells (human, UniProt Q9UM73 19-1620); assay: saturation binding of 35S-labeled PTN to 32D/ALK cells, non-linear regression
T1 construct: U87MG cells carry endogenous human ALK; also called PTNR; PTN receptor
Method: For this, ALK-negative mouse hematopoietic cell line 32D was used which grows in suspension culture and expressed the ALK protein in these cells. Also used was ^35S-labeled PTN from metabolic labeling experiments as a ligand for the receptor binding studies. Briefly, cell lysates were then prepared and a total of 3 mg of cellular proteins subjected to immunoprecipitation as described. (Souttou et al., 1997). For uncoupled antibodies, Sepharose-bound protein G (Gammabind plus, Amersham/Pharmacia) was used to precipitate immunocomplexes. Antibodies were anti-phosphotyrosine (agarose-coupled 4G10, 30 µl; UBI, Lake Placid NY), anti-PTNR (a cocktail of antibodies from Santa Cruz Biotechnology, Santa Cruz Calif. and from Accurate Chemicals, Westburg N.Y.), anti-IRS-1 (3 µg of rabbit IgG). Resulting precipitates were analyzed by SDS polyacrylamide gel electrophoresis. Experimental procedures for immunoblots for phosphotyrosine, IRS-1 (anti-IRS-1, Transduction Laboratories, Lexington Ky.), PLC-gamma (anti-PLC-gamma, UBI)and PI3-kinase (UBI) using unlabelled cells as described (Souttou et al., 1997).
Saturation binding of radiolabeled PTN to 32D/ALK (filled symbols) and 32D/control cells (open symbols) (FIG. 2b). Data were pooled from two independent experiments with triplicate repeat measurements of data points. […]

[2] = molecular target: T1, ALK (anaplastic lymphoma kinase) …; assay: saturation binding of 35S-labeled PTN to 32D/ALK cells

T1 sequence (Q9UM73 other isoform, or with tags, fused parts or gaps limits assumed): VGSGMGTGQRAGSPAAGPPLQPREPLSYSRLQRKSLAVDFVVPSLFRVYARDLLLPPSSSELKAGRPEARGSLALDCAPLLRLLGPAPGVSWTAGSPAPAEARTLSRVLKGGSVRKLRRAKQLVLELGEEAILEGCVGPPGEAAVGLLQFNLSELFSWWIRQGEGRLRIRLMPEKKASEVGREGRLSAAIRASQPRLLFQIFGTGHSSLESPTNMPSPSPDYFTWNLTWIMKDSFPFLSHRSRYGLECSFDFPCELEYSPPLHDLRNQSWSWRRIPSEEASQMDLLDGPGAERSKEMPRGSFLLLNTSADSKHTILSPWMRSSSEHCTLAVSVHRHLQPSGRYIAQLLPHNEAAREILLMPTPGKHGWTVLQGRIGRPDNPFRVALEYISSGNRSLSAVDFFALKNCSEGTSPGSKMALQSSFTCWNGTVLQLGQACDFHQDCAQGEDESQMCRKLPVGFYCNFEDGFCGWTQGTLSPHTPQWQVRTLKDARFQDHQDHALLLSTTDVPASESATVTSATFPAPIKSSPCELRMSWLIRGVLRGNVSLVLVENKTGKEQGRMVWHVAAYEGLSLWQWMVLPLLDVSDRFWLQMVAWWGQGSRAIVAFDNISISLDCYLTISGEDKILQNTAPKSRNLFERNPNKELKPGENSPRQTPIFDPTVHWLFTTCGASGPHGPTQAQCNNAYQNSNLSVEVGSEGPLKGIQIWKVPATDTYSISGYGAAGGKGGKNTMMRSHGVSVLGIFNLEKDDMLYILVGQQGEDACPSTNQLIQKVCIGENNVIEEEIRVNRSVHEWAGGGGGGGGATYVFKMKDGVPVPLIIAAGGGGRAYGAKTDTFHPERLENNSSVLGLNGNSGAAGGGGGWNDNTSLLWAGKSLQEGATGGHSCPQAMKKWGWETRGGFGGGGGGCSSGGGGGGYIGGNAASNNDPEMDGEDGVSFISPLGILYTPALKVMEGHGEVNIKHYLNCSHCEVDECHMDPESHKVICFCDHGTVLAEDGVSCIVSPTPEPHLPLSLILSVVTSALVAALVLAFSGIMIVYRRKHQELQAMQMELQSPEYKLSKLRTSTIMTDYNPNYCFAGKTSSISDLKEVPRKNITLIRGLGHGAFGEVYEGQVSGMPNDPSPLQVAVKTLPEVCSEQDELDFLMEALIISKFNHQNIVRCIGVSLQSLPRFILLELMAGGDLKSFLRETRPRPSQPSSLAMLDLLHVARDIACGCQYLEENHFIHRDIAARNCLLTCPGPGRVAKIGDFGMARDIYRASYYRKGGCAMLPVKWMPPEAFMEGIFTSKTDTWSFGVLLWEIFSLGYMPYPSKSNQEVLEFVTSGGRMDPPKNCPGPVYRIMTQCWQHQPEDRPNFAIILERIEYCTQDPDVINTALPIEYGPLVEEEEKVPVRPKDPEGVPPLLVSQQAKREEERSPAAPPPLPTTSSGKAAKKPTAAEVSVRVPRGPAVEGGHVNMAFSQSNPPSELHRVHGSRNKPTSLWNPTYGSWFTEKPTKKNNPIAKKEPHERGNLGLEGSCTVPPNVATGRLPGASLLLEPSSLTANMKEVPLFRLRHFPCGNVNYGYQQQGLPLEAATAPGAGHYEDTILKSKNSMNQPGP

- Kd [1]: 32 pM
- Kd [2]: 30 to 40 pM
B1: pleiotrophin (PTN), purified from the culture supernatant of cells transfected with the human PTN cDNA (ligand, UniProt P21246 33-168, looked up)
chain: GKKEKPEKKVKKSDCGEWQWSVCVPTSGDCGLGTREGTRTGAECKQTMKTQRCKIPCNWKKQFGAECKYQFQAWGECDLNTALKTRTGSLKRALHNAECQKTVTISKPCGKLTKPKPQAESKKKKKEGKKQEKMLD
notes: also called PTN ligand; radiolabeled PTN

Source: US7528109 (GEORGETOWN UNIVERSITY, dated 2009)
